We go through 84 substances from the Human Domainome abundance scans (Beltran et al. 2025).

± gives the uncertainty stated by the source.

A short description of this data set: abundance fitness (aPCA) (normalised: wild type 0, dead -1); higher = more abundant; growth selection in yeast, the domain comes from the species named. The settings on record: Homo sapiens.
Regarding “E3 ubiquitin-protein ligase NEDD4-like P224Y, Q96PU5”, the abundance fitness was -1.18 ± 0.095.

The substance “E3 ubiquitin-protein ligase NEDD4-like Q185C, Q96PU5” returned an abundance fitness of -0.793 ± 0.065.

“E3 ubiquitin-protein ligase NEDD4-like Q185D, Q96PU5” yielded an abundance fitness of -0.097 ± 0.1.

For the substance “E3 ubiquitin-protein ligase NEDD4-like Q185E, Q96PU5”, the abundance fitness is -0.534 ± 0.097.

Turning to “E3 ubiquitin-protein ligase NEDD4-like Q185F, Q96PU5”, the abundance fitness is -0.257 ± 0.12.

“E3 ubiquitin-protein ligase NEDD4-like Q185G, Q96PU5”: the abundance fitness is -0.723 ± 0.058.

“E3 ubiquitin-protein ligase NEDD4-like Q185H, Q96PU5” returned an abundance fitness of -0.034 ± 0.081.

Consider “E3 ubiquitin-protein ligase NEDD4-like Q185I, Q96PU5”, for which the abundance fitness was -0.038 ± 0.11.

Substance “E3 ubiquitin-protein ligase NEDD4-like Q185K, Q96PU5” came in with an abundance fitness of -0.398 ± 0.12.

In turn, “E3 ubiquitin-protein ligase NEDD4-like Q185L, Q96PU5” registered an abundance fitness of -0.542 ± 0.081.

On to “E3 ubiquitin-protein ligase NEDD4-like Q185N, Q96PU5”, for which the abundance fitness came out at 0.154 ± 0.12.

Substance “E3 ubiquitin-protein ligase NEDD4-like Q185P, Q96PU5” displayed an abundance fitness of -0.539 ± 0.12.

In turn, “E3 ubiquitin-protein ligase NEDD4-like Q185R, Q96PU5” returned an abundance fitness of -0.633 ± 0.068.

With “E3 ubiquitin-protein ligase NEDD4-like Q185S, Q96PU5”, the abundance fitness was -1.18 ± 0.15.

With “E3 ubiquitin-protein ligase NEDD4-like Q185T, Q96PU5”, the abundance fitness is -0.143 ± 0.1.

On to “E3 ubiquitin-protein ligase NEDD4-like Q185V, Q96PU5”, for which the abundance fitness is -0.332 ± 0.075.

On to “E3 ubiquitin-protein ligase NEDD4-like Q185Y, Q96PU5”, for which the abundance fitness was found to be 0.011 ± 0.11.

In the case of “E3 ubiquitin-protein ligase NEDD4-like Q187A, Q96PU5”, the abundance fitness is -0.256 ± 0.058.

As to “E3 ubiquitin-protein ligase NEDD4-like Q187D, Q96PU5”, the abundance fitness is -0.167 ± 0.097.

Substance “E3 ubiquitin-protein ligase NEDD4-like Q187E, Q96PU5” gave an abundance fitness of -0.767 ± 0.079.

Consider “E3 ubiquitin-protein ligase NEDD4-like Q187F, Q96PU5”, for which the abundance fitness worked out at 0.041 ± 0.07.

Take “E3 ubiquitin-protein ligase NEDD4-like Q187G, Q96PU5”: the abundance fitness was -0.799 ± 0.07.

Consider “E3 ubiquitin-protein ligase NEDD4-like Q187I, Q96PU5”, for which the abundance fitness was -0.247 ± 0.11.

Substance “E3 ubiquitin-protein ligase NEDD4-like Q187K, Q96PU5” showed an abundance fitness of 0.243 ± 0.087.

Take “E3 ubiquitin-protein ligase NEDD4-like Q187L, Q96PU5”: the abundance fitness is -0.287 ± 0.071.

The substance “E3 ubiquitin-protein ligase NEDD4-like Q187M, Q96PU5” returned an abundance fitness of -0.069 ± 0.092.

The substance “E3 ubiquitin-protein ligase NEDD4-like Q187N, Q96PU5” displayed an abundance fitness of -0.001 ± 0.072.

Turning to “E3 ubiquitin-protein ligase NEDD4-like Q187R, Q96PU5”, the abundance fitness is -0.298 ± 0.066.

“E3 ubiquitin-protein ligase NEDD4-like Q187S, Q96PU5” had an abundance fitness of -0.242 ± 0.073.

On to “E3 ubiquitin-protein ligase NEDD4-like Q187T, Q96PU5”, for which the abundance fitness came to 0.016 ± 0.09.

The substance “E3 ubiquitin-protein ligase NEDD4-like Q187V, Q96PU5” yielded an abundance fitness of -0.233 ± 0.06.

On to “E3 ubiquitin-protein ligase NEDD4-like Q187W, Q96PU5”, for which the abundance fitness was -0.907 ± 0.073.

For the substance “E3 ubiquitin-protein ligase NEDD4-like Q187Y, Q96PU5”, the abundance fitness stood at 0.031 ± 0.1.

Regarding “E3 ubiquitin-protein ligase NEDD4-like Q220A, Q96PU5”, the abundance fitness was -0.096 ± 0.057.

In turn, “E3 ubiquitin-protein ligase NEDD4-like Q220C, Q96PU5” gave an abundance fitness of -0.06 ± 0.071.

Consider “E3 ubiquitin-protein ligase NEDD4-like Q220D, Q96PU5”, for which the abundance fitness is -0.258 ± 0.088.

In turn, “E3 ubiquitin-protein ligase NEDD4-like Q220E, Q96PU5” registered an abundance fitness of -0.555 ± 0.084.

As for “E3 ubiquitin-protein ligase NEDD4-like Q220F, Q96PU5”, the abundance fitness is -0.618 ± 0.12.

As to “E3 ubiquitin-protein ligase NEDD4-like Q220G, Q96PU5”, the abundance fitness was -0.548 ± 0.071.

Substance “E3 ubiquitin-protein ligase NEDD4-like Q220H, Q96PU5” yielded an abundance fitness of -0.775 ± 0.17.

For the substance “E3 ubiquitin-protein ligase NEDD4-like Q220I, Q96PU5”, the abundance fitness was -0.371 ± 0.12.

In turn, “E3 ubiquitin-protein ligase NEDD4-like Q220K, Q96PU5” yielded an abundance fitness of -0.757 ± 0.12.

Substance “E3 ubiquitin-protein ligase NEDD4-like Q220M, Q96PU5” returned an abundance fitness of -0.362 ± 0.093.

As to “E3 ubiquitin-protein ligase NEDD4-like Q220N, Q96PU5”, the abundance fitness was -0.354 ± 0.071.

“E3 ubiquitin-protein ligase NEDD4-like Q220P, Q96PU5” returned an abundance fitness of -0.9 ± 0.078.

Turning to “E3 ubiquitin-protein ligase NEDD4-like Q220R, Q96PU5”, the abundance fitness is -0.557 ± 0.072.

Turning to “E3 ubiquitin-protein ligase NEDD4-like Q220S, Q96PU5”, the abundance fitness came out at 0.184 ± 0.065.

“E3 ubiquitin-protein ligase NEDD4-like Q220T, Q96PU5”: the abundance fitness stood at 0.163 ± 0.077.

Substance “E3 ubiquitin-protein ligase NEDD4-like Q220V, Q96PU5” came in with an abundance fitness of -0.242 ± 0.06.

Take “E3 ubiquitin-protein ligase NEDD4-like Q220Y, Q96PU5”: the abundance fitness is -0.692 ± 0.096.

“E3 ubiquitin-protein ligase NEDD4-like R208A, Q96PU5” registered an abundance fitness of 0.036 ± 0.062.

“E3 ubiquitin-protein ligase NEDD4-like R208C, Q96PU5”: the abundance fitness is 0.06 ± 0.062.

As to “E3 ubiquitin-protein ligase NEDD4-like R208D, Q96PU5”, the abundance fitness was found to be 0.067 ± 0.098.

The substance “E3 ubiquitin-protein ligase NEDD4-like R208E, Q96PU5” gave an abundance fitness of 0.047 ± 0.083.

For “E3 ubiquitin-protein ligase NEDD4-like R208F, Q96PU5”, the abundance fitness is -0.289 ± 0.06.

“E3 ubiquitin-protein ligase NEDD4-like R208G, Q96PU5” came in with an abundance fitness of -0.191 ± 0.06.

As for “E3 ubiquitin-protein ligase NEDD4-like R208I, Q96PU5”, the abundance fitness is -0.504 ± 0.12.

The substance “E3 ubiquitin-protein ligase NEDD4-like R208K, Q96PU5” registered an abundance fitness of -0.028 ± 0.079.

“E3 ubiquitin-protein ligase NEDD4-like R208L, Q96PU5”: the abundance fitness is -0.128 ± 0.069.

Take “E3 ubiquitin-protein ligase NEDD4-like R208M, Q96PU5”: the abundance fitness is -0.062 ± 0.078.

On to “E3 ubiquitin-protein ligase NEDD4-like R208N, Q96PU5”, for which the abundance fitness came out at 0.225 ± 0.11.

The substance “E3 ubiquitin-protein ligase NEDD4-like R208P, Q96PU5” had an abundance fitness of -0.908 ± 0.099.

For “E3 ubiquitin-protein ligase NEDD4-like R208Q, Q96PU5”, the abundance fitness amounted to 0.215 ± 0.09.

For the substance “E3 ubiquitin-protein ligase NEDD4-like R208T, Q96PU5”, the abundance fitness was -0.005 ± 0.08.

Substance “E3 ubiquitin-protein ligase NEDD4-like R208W, Q96PU5” returned an abundance fitness of -0.408 ± 0.083.

In turn, “E3 ubiquitin-protein ligase NEDD4-like R208Y, Q96PU5” returned an abundance fitness of -0.23 ± 0.11.

As for “E3 ubiquitin-protein ligase NEDD4-like R217A, Q96PU5”, the abundance fitness amounted to 0 ± 0.064.

Turning to “E3 ubiquitin-protein ligase NEDD4-like R217C, Q96PU5”, the abundance fitness was -0.105 ± 0.081.

As to “E3 ubiquitin-protein ligase NEDD4-like R217D, Q96PU5”, the abundance fitness is -0.042 ± 0.078.

Substance “E3 ubiquitin-protein ligase NEDD4-like R217E, Q96PU5” displayed an abundance fitness of -0.153 ± 0.085.

Substance “E3 ubiquitin-protein ligase NEDD4-like R217F, Q96PU5” had an abundance fitness of -0.011 ± 0.088.

Turning to “E3 ubiquitin-protein ligase NEDD4-like R217G, Q96PU5”, the abundance fitness was -0.005 ± 0.054.

“E3 ubiquitin-protein ligase NEDD4-like R217H, Q96PU5” displayed an abundance fitness of -1 ± 0.062.

Substance “E3 ubiquitin-protein ligase NEDD4-like R217I, Q96PU5” had an abundance fitness of -0.267 ± 0.084.

Turning to “E3 ubiquitin-protein ligase NEDD4-like R217K, Q96PU5”, the abundance fitness was 0.087 ± 0.091.

Substance “E3 ubiquitin-protein ligase NEDD4-like R217L, Q96PU5” displayed an abundance fitness of -0.208 ± 0.06.

In turn, “E3 ubiquitin-protein ligase NEDD4-like R217M, Q96PU5” had an abundance fitness of -0.239 ± 0.07.

As to “E3 ubiquitin-protein ligase NEDD4-like R217N, Q96PU5”, the abundance fitness worked out at 0.051 ± 0.089.

As for “E3 ubiquitin-protein ligase NEDD4-like R217P, Q96PU5”, the abundance fitness is -0.267 ± 0.085.

“E3 ubiquitin-protein ligase NEDD4-like R217Q, Q96PU5” showed an abundance fitness of -0.016 ± 0.067.

“E3 ubiquitin-protein ligase NEDD4-like R217T, Q96PU5” registered an abundance fitness of -0.069 ± 0.081.

“E3 ubiquitin-protein ligase NEDD4-like R217Y, Q96PU5”: the abundance fitness is -0.179 ± 0.084.

In the case of “E3 ubiquitin-protein ligase NEDD4-like R223A, Q96PU5”, the abundance fitness was -0.175 ± 0.066.

With “E3 ubiquitin-protein ligase NEDD4-like R223C, Q96PU5”, the abundance fitness was -0.552 ± 0.09.
